From article PMC7659708, “Genetically encoded live-cell sensor for tyrosinated microtubules” (The Journal of Cell Biology, 2020)
Where “and” joins values, the source holds several entries; their conditions need not be identical. Equal entries are not always repeated. Where no end group is shown, it is not given here. The star is where a group is joined. Biotin = O=C1N[C@H]2[C@H](CS[C@H]2CCCCC(=O)*)N1

Legend:
Conditions in all cases: both partners purified
[1] = molecular target: T1, 13C-15N isotope-labeled A1aY1 protein (thrombin-cleaved) (13C, 15N isotope-labeled); test: NMR titration; 1H-15N HSQC of 13C,15N-labeled A1aY1 with nonbiotinylated peptides added at 0.5 to 7 equivalents (Hs_TUBA1A) or 1 to 4 equivalents (Hs_TUBA1A-ΔY); 25°C
T1 construct: A1aY1, an SSO7D mutant selected from a combinatorial yeast display library; source: E. coli Rosetta (DE3) grown in M9 media, purified (Ni-NTA, SEC, thrombin cleavage, SEC); not shown: His6, N-terminal, cleaved
T1 chain: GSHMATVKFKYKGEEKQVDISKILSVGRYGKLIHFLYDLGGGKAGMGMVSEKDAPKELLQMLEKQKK

biotin-TUBA1A 440-451 = molecular target: T2, biotin-TUBA1A 440-451 (human); test: SPR; steady-state binding assay, Biacore-T200; biotinylated peptides immobilized on a streptavidin (SA) sensor chip at 100-300 response units; A1aY1 titrated from 0.031 to 200 µM; 1x HBS-P+ (10 mM Hepes, 150 mM NaCl, 0.05% surfactant P20), 30 µl/min; 1:1 binding considered, one site total fit
T2 construct: C-terminal tail of human alpha-tubulin TUBA1A, amino acids 440-451, tyrosinated; source: synthetic peptide (Thermo Fisher Scientific)
T2 peptide: Biotin-VEGEGEEEGEEY

biotin-TUBA1A 440-450 = molecular target: T3, biotin-TUBA1A 440-450 (human); test: as above
T3 construct: C-terminal tail of human alpha-tubulin TUBA1A, amino acids 440-450, without the terminal tyrosine (detyrosinated); source: synthetic peptide (Thermo Fisher Scientific)
T3 peptide: Biotin-VEGEGEEEGEE

[2] = molecular target: T4, biotin-TUBA1A 440-451-[E]445 (human); test: as above
T4 construct: C-terminal tail of human alpha-tubulin TUBA1A, amino acids 440-451, printed VEGEG[E]EEGEEY with [E] the monoglutamylated residue 445; source: synthetic peptide (Thermo Fisher Scientific)
T4 peptide: Biotin-VEGEGE(Glu)EEGEEY

biotin-Tub84B 438-450 = molecular target: T5, biotin-Tub84B 438-450 (Drosophila); test: as above
T5 construct: C-terminal tail of Drosophila alpha-tubulin Tub84B; they would span 439-450 if the last residue is 450; source: synthetic peptide (LifeTein)
T5 peptide: Biotin-SGDGEGEGAEEY

biotin-Tba-1 437-449 = molecular target: T6, biotin-Tba-1 437-449 (C. elegans); test: as above
T6 construct: C-terminal tail of C. elegans alpha-tubulin Tba-1, amino acids 437-449; source: synthetic peptide (LifeTein)
T6 peptide: Biotin-SNEGGNEEEGEEY

B1: nonbiotinylated Hs_TUBA1A peptide (peptide)
peptide: VEGEGEEEGEEY
notes: C-terminal tail of human alpha-tubulin TUBA1A, amino acids 440-451, tyrosinated, without biotin; also called tyrosinated peptide; α-tubulin CTT peptide; source: synthetic peptide (LifeTein)
binding result [1]: binds

B2: A1aY1 binder (designed binder)
chain: MATVKFKYKGEEKQVDISKILSVGRYGKLIHFLYDLGGGKAGMGMVSEKDAPKELLQMLEKQKK
notes: A1aY1, an SSO7D mutant selected from a combinatorial yeast display library; (His6, thrombin site, A1aY1); Protein used in the SPR steady-state titrations; The results say 'without any tags'; the methods describe the stored protein as 9.3 kD, which is the size with His6 and thrombin site, and tell of thrombin cleavage only for the NMR sample; also called tyrosination sensor; source: E. coli …
Kd (biotin-TUBA1A 440-451): 1.6 ± 0.3 µM | Kd (biotin-TUBA1A 440-450): > 60 µM | Kd [2]: 13.6 ± 4.5 µM | Kd (biotin-Tub84B 438-450): 4.1 µM and 4 µM | Kd (biotin-Tba-1 437-449): 1 ± 0.2 µM
